We go through two sequences from patent US20230242584A1, “NOVEL POLYPEPTIDES WITH SKIN WHITENING ACTIVITY AND USE THEREOF” (Metapore Co., Ltd., priority 2019, published 2023).

The target in one assay is T1, tyrosinase (Mus musculus, UniProt P11344).
T1 construct: Cells were lysed with PBS buffer containing 1% Triton X-100 (Sigma); endogenous in cells; host or cells: B16F10 cells, stimulated with alpha-MSH
T1 sequence (P11344 19-533): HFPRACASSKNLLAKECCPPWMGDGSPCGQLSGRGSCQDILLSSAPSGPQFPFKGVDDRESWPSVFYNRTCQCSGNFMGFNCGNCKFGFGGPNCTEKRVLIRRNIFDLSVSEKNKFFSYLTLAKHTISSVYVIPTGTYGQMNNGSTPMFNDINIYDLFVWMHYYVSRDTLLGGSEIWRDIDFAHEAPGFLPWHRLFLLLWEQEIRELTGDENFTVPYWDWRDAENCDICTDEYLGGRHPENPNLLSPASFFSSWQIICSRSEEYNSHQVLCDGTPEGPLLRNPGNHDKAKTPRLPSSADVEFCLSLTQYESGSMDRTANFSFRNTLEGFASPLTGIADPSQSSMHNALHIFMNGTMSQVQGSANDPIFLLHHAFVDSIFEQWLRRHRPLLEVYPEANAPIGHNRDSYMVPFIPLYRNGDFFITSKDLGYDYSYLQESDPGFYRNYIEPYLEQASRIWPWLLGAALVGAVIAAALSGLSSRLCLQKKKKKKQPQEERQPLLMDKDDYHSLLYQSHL
Put plainly: Tyrosinase activity assay (tyrosinase inhibitory effect). The assay is classed as cell-based. Particulars: 10 μM polypeptide, α-MSH 0.5 μM, 24 hours, B16F10 cell lysate with 5 mM L-DOPA; control 10 μM arbutin; FIG. 2. How it is done:
B16F10 cells (6×10^4 cells/well) were aliquoted into 6-well plates and incubated. After 12 hours, the medium was changed to a medium containing a-MSH (Sigma, 0.5 μM) and the test substance (each of the polypeptides or control substances of the present invention). Each 10 μM of polypeptides were treated. In addition, 10 μM of arbutin, which is widely known as a skin whitening ingredient, was used as a control. After incubation for 24 hours, cells were harvested. Cells were lysed with PBS buffer containing 1% Triton X-100 (Sigma). After centrifugation at 12,000 rpm for 20 minutes, the supernatant was harvested and the protein concentration was measured by BCA assay kit (Thermo Fisher Scientific). To measure tyrosinase activity, 50 μg of protein (protein contained in the supernatant) was incubated at 37° C. with 5 mM L-DOPA. Absorbance was measured at 490 nm using a microplate reader (Synergy 2, BioTek). Absorbance was measured every 10 minutes for 1 hour.

Another assay relates to B16F10 cells. Put plainly: Melanin assay (melanin inhibitory effect). The conditions noted are these: 10 μM polypeptide, α-MSH 0.5 μM, 24 hours, absorbance 490 nm, control 10 μM arbutin, FIG. 1. Type of assay: cell-based. The method, then:
B16F10 cells (6×10^4 cells/well) were aliquoted into 6-well plates and incubated. After 12 hours, the medium was changed to a medium containing α-MSH (Sigma, 0.5 μM) and the test substance (each of the polypeptides or control substances of the present invention). Each 10 μM of polypeptides were treated. In addition, 10 μM of arbutin, which is widely known as a skin whitening ingredient, was used as a control. After incubation for 24 hours, cells were harvested. The number of cells was confirmed using a C-chip (disposable hemacytometer, […]). Cells (1×10^5 cells) were lysed with 1N NaOH at 70° C. for 1 hour. After centrifugation at 4,000 rpm for 5 minutes, the supernatant was harvested and the melanin content was measured. The absorbance of melanin was measured at 490 nm using a microplate reader (Synergy 2, BioTek).

Consider “ADQIIEYLKQQVSLL (amino acid sequence of peptide for skin whitening (AIMP1 18aa - 32aa)) [Peptide S2]”, for which the “inhibitory effect of tyrosinase” value in the assay with tyrosinase is reported as “same level of the inhibitory effect of tyrosinase as arbutin”. Besides, the “inhibitory effect of melanin production” value with B16F10 cells was “better inhibitory effect of melanin production than arbutin”.

In the case of “LKEKAILQATLREEK (peptide fragment from AIMP1(AIMP1 32aa - 46aa)) [Peptide S10]”, the “inhibitory effect of tyrosinase” value in the assay with tyrosinase is “insignificant”. Moreover, the “inhibitory effect of melanin production” value in the assay on B16F10 cells was “completely absent”.
